Results published in the supplement of paper PMC9112550, “Optimization of the antimicrobial peptide Bac7 by deep mutational scanning” (BMC Biology, 2022).

Test system: Escherichia coli TOP10
Experiment: shrunken log2 fold change of peptide-encoding DNA abundance (4.5 h post-induction vs induction); higher = less antimicrobial activity (less host growth inhibition)
Settings: time post-induction: 4.5 h; library: site-saturation at positions 5, 18, 19, 20
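Note: peptides expressed intracellularly from a pBAD plasmid library in pooled LB shake-flask culture, induced with 0.3% L-arabinose, DNA abundance read by NGS, three biological replicates, DESeq2 with apeglm shrinkage.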

Sequence | shrunken log2 fold change
RRIRNRPPRLPRPRPRPKCKPRP | -0.261
RRIRNRPPRLPRPRPRPKCNPRP | -0.819
RRIRNRPPRLPRPRPRPKCTPRP | 0.119
RRIRNRPPRLPRPRPRPKDAPRP | 0.0655
RRIRNRPPRLPRPRPRPKDQPRP | -0.108
RRIRNRPPRLPRPRPRPKECPRP | 0.00801
RRIRNRPPRLPRPRPRPKELPRP | 0.0238
RRIRNRPPRLPRPRPRPKGGPRP | 0.226
RRIRNRPPRLPRPRPRPKHHPRP | -0.487
RRIRNRPPRLPRPRPRPKHSPRP | -0.187
RRIRNRPPRLPRPRPRPKHVPRP | -0.0669
RRIRNRPPRLPRPRPRPKIFPRP | 0.19
RRIRNRPPRLPRPRPRPKLSPRP | 0.0328
RRIRNRPPRLPRPRPRPKNCPRP | -0.552
RRIRNRPPRLPRPRPRPKNHPRP | -0.19
RRIRNRPPRLPRPRPRPKNYPRP | -0.752
RRIRNRPPRLPRPRPRPKQVPRP | -0.173
RRIRNRPPRLPRPRPRPKRTPRP | -0.0256
RRIRNRPPRLPRPRPRPKRWPRP | 0.0633
RRIRNRPPRLPRPRPRPKSIPRP | -0.569
RRIRNRPPRLPRPRPRPKTGPRP | -0.0778
RRIRNRPPRLPRPRPRPKWYPRP | -0.517
RRIRNRPPRLPRPRPRPKYSPRP | -0.379
RRIRNRPPRLPRPRPRPLARPRP | 0.107
RRIRNRPPRLPRPRPRPLCMPRP | -0.218

Sequence | shrunken log2 fold change
RRIRNRPPRLPRPRPRPLDKPRP | -0.186
RRIRNRPPRLPRPRPRPLDNPRP | -0.263
RRIRNRPPRLPRPRPRPLEIPRP | 0.000705
RRIRNRPPRLPRPRPRPLFDPRP | -0.298
RRIRNRPPRLPRPRPRPLFFPRP | -0.217
RRIRNRPPRLPRPRPRPLFGPRP | 0.0228
RRIRNRPPRLPRPRPRPLGRPRP | 0.244
RRIRNRPPRLPRPRPRPLGWPRP | 0.367
RRIRNRPPRLPRPRPRPLHLPRP | -0.59
RRIRNRPPRLPRPRPRPLKDPRP | -0.0618
RRIRNRPPRLPRPRPRPLKEPRP | 0.00854
RRIRNRPPRLPRPRPRPLKLPRP | -0.207
RRIRNRPPRLPRPRPRPLLTPRP | -0.046
RRIRNRPPRLPRPRPRPLLVPRP | -0.199
RRIRNRPPRLPRPRPRPLNIPRP | -0.389
RRIRNRPPRLPRPRPRPLNNPRP | -0.478
RRIRNRPPRLPRPRPRPLPPPRP | 0.5
RRIRNRPPRLPRPRPRPLRAPRP | 0.672
RRIRNRPPRLPRPRPRPLSIPRP | -0.423
RRIRNRPPRLPRPRPRPLTPPRP | 0.136
RRIRNRPPRLPRPRPRPLYLPRP | -0.54
RRIRNRPPRLPRPRPRPLYNPRP | -0.0372
RRIRNRPPRLPRPRPRPLYPPRP | -0.586
RRIRNRPPRLPRPRPRPMCCPRP | -0.406
RRIRNRPPRLPRPRPRPMCHPRP | 0.0429

Sequence | shrunken log2 fold change
RRIRNRPPRLPRPRPRPMDEPRP | 0.358
RRIRNRPPRLPRPRPRPMDTPRP | -0.141
RRIRNRPPRLPRPRPRPMECPRP | -0.0276
RRIRNRPPRLPRPRPRPMFPPRP | -0.235
RRIRNRPPRLPRPRPRPMFYPRP | -0.166
RRIRNRPPRLPRPRPRPMICPRP | 0.0101
RRIRNRPPRLPRPRPRPMIHPRP | -0.136
RRIRNRPPRLPRPRPRPMNNPRP | -0.749
RRIRNRPPRLPRPRPRPMPMPRP | 0.0119
RRIRNRPPRLPRPRPRPMPRPRP | 0.11
RRIRNRPPRLPRPRPRPMPYPRP | 0.0291
RRIRNRPPRLPRPRPRPMQFPRP | -0.466
RRIRNRPPRLPRPRPRPMQNPRP | -0.11
RRIRNRPPRLPRPRPRPMQRPRP | 0.00752
RRIRNRPPRLPRPRPRPMTPPRP | 0.244
RRIRNRPPRLPRPRPRPMVKPRP | -0.00408
RRIRNRPPRLPRPRPRPMWNPRP | -0.294
RRIRNRPPRLPRPRPRPMWQPRP | -0.222
RRIRNRPPRLPRPRPRPMYSPRP | -0.479
RRIRNRPPRLPRPRPRPNAQPRP | -0.119
RRIRNRPPRLPRPRPRPNAWPRP | 0.000665
RRIRNRPPRLPRPRPRPNCWPRP | 0.241
RRIRNRPPRLPRPRPRPNDWPRP | 0.0943
RRIRNRPPRLPRPRPRPNEPPRP | -0.000856
RRIRNRPPRLPRPRPRPNERPRP | 0.0308

Sequence | shrunken log2 fold change
RRIRNRPPRLPRPRPRPNEVPRP | -0.0252
RRIRNRPPRLPRPRPRPNGNPRP | -0.0621
RRIRNRPPRLPRPRPRPNHGPRP | -0.0113
RRIRNRPPRLPRPRPRPNHTPRP | -0.773
RRIRNRPPRLPRPRPRPNHYPRP | -0.885
RRIRNRPPRLPRPRPRPNIEPRP | -0.027
RRIRNRPPRLPRPRPRPNKIPRP | -0.658
RRIRNRPPRLPRPRPRPNKSPRP | -0.338
RRIRNRPPRLPRPRPRPNMGPRP | -0.00804
RRIRNRPPRLPRPRPRPNMYPRP | -0.392
RRIRNRPPRLPRPRPRPNNCPRP | -0.0864
RRIRNRPPRLPRPRPRPNNGPRP | -0.0309
RRIRNRPPRLPRPRPRPNNPPRP | -0.511
RRIRNRPPRLPRPRPRPNQCPRP | -0.136
RRIRNRPPRLPRPRPRPNTAPRP | 0.0213
RRIRNRPPRLPRPRPRPNTQPRP | -0.148
RRIRNRPPRLPRPRPRPNVRPRP | -0.243
RRIRNRPPRLPRPRPRPPAFPRP | 0.0832
RRIRNRPPRLPRPRPRPPAGPRP | 0.637
RRIRNRPPRLPRPRPRPPALPRP | 0.132
RRIRNRPPRLPRPRPRPPAVPRP | 0.387
RRIRNRPPRLPRPRPRPPDEPRP | 1.28
RRIRNRPPRLPRPRPRPPDKPRP | 0.182
RRIRNRPPRLPRPRPRPPEQPRP | 0.112
RRIRNRPPRLPRPRPRPPFEPRP | 0.128

Sequence | shrunken log2 fold change
RRIRNRPPRLPRPRPRPPFVPRP | 0.164
RRIRNRPPRLPRPRPRPPHYPRP | -0.245
RRIRNRPPRLPRPRPRPPIRPRP | 0.0511
RRIRNRPPRLPRPRPRPPKCPRP | 0.189
RRIRNRPPRLPRPRPRPPLQPRP | 0.213
RRIRNRPPRLPRPRPRPPNGPRP | -0.00827
RRIRNRPPRLPRPRPRPPPEPRP | 1.1
RRIRNRPPRLPRPRPRPPQQPRP | 0.294
RRIRNRPPRLPRPRPRPPRIPRP | 0.325
RRIRNRPPRLPRPRPRPPRLPRP | 0.514
RRIRNRPPRLPRPRPRPPSIPRP | -0.0153
RRIRNRPPRLPRPRPRPPSKPRP | -0.161
RRIRNRPPRLPRPRPRPPVYPRP | 0.111
RRIRNRPPRLPRPRPRPPWGPRP | 0.254
RRIRNRPPRLPRPRPRPPWHPRP | 0.129
RRIRNRPPRLPRPRPRPPYFPRP | -0.172
RRIRNRPPRLPRPRPRPPYSPRP | -0.604
RRIRNRPPRLPRPRPRPQAIPRP | 0.00297
RRIRNRPPRLPRPRPRPQEAPRP | -0.0152
RRIRNRPPRLPRPRPRPQFQPRP | 0.0437
RRIRNRPPRLPRPRPRPQGAPRP | -0.149
RRIRNRPPRLPRPRPRPQGEPRP | -0.422
RRIRNRPPRLPRPRPRPQGLPRP | -0.109
RRIRNRPPRLPRPRPRPQGSPRP | -0.0968
RRIRNRPPRLPRPRPRPQHFPRP | -0.0338

Sequence | shrunken log2 fold change
RRIRNRPPRLPRPRPRPQKAPRP | -0.0017
RRIRNRPPRLPRPRPRPQKDPRP | -0.564
RRIRNRPPRLPRPRPRPQKMPRP | -0.134
RRIRNRPPRLPRPRPRPQMYPRP | -0.864
RRIRNRPPRLPRPRPRPQNHPRP | -0.685
RRIRNRPPRLPRPRPRPQPNPRP | -0.047
RRIRNRPPRLPRPRPRPQRRPRP | 0.135
RRIRNRPPRLPRPRPRPQRYPRP | -0.602
RRIRNRPPRLPRPRPRPQSDPRP | -0.174
RRIRNRPPRLPRPRPRPQTTPRP | -0.149
RRIRNRPPRLPRPRPRPQTVPRP | -0.0578
RRIRNRPPRLPRPRPRPQVKPRP | 0.0117
RRIRNRPPRLPRPRPRPQWHPRP | -0.481
RRIRNRPPRLPRPRPRPQWSPRP | 0.129
RRIRNRPPRLPRPRPRPRCPPRP | -0.0521
RRIRNRPPRLPRPRPRPRDFPRP | 0.0201
RRIRNRPPRLPRPRPRPRDLPRP | 0.186
RRIRNRPPRLPRPRPRPREAPRP | 0.00436
RRIRNRPPRLPRPRPRPREDPRP | 0.102
RRIRNRPPRLPRPRPRPRESPRP | -0.0379
RRIRNRPPRLPRPRPRPRFVPRP | -0.384
RRIRNRPPRLPRPRPRPRGNPRP | 0.26
RRIRNRPPRLPRPRPRPRGSPRP | 0.299
RRIRNRPPRLPRPRPRPRINPRP | -0.14
RRIRNRPPRLPRPRPRPRIWPRP | 0.0945
